Reference: IntAct's records for PubMed 16462746

B1: Rab5 GDP/GTP exchange factor (Bos taurus (Bovine)), O18973 (parent)
chain: MSLKSERRGIHVDQSELLCKKGCGYYGNPAWQGFCSKCWREEYHKARQKQIQEDWELAERLQREEEEAFASSQSSQGAQSLTFSKFEEKKTNEKTRKVTTVKKFFSASSRVGAKKAEIQEAKAPSPSINRQTSIETDRVSKEFIEFLKTFHKTGQEIYKQTKLFLEAMHYKRDLSIEEQSECTQDFYQNVAERMQTRGKVPPERVEKIMDQIEKYIMTRLYKYVFCPETTDDEKKDLAIQKRIRALHWVTPQMLCVPVNEEIPEVSDMVVKAITDIIEMDSKRVPRDKLACITKCSKHIFNAIKITKNEPASADDFLPTLIYIVLKGNPPRLQSNIQYITRFCNPSRLMTGEDGYYFTNLCCAVAFIEKLDAQSLNLSQEDFDRYMSGQTSPRKQESENWSPDACLGVKQMYKNLDLLSQLNERQERIMNEAKKLEKDLIDWTDGIAKEVQDIVEKYPLEIRPPNQSVAAIDSENVENDKLPPPLQPQVYAG

Variants of: B1
Settings: with UBE2D3, P61077-1
Chain of UBE2D3, P61077-1 (P61077 whole entry): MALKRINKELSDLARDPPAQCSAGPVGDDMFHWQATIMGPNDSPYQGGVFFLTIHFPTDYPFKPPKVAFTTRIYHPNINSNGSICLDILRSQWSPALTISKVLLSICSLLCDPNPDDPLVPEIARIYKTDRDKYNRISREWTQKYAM

| effect of a mutation on the interaction | Variant |
| --- | --- |
| disrupting interaction | Y25A;Y26A |
